Measured values as given in article PMC4643373.

Target: FMRP isoform 1 (FMRP ISO1) (human (title of cited purification …, UniProt Q06787 1-632))
Assay: fluorescence spectroscopy

B1: NR2B 2AP mRNA (structured_RNA)
RNA: GGGUACGGGAGGGUAAGGCUGUGGGUCGCGUG
modifications: 2-aminopurine replacing A5
Kd: 370 nM
